The values that follow are results of earlier work, collected in patent US20020094542A1, “Drugs and methods for treating cancer” (priority 1989, published 2002).

For the data set the following is noted: patients with kidney transplants.

Regarding “OKT3: monoclonal heterologous AB used clinically in patients with kidney transplants”, the side-effects of treatment result is reported as “low (flu-like)”.
